According to patent US20210269499A1, “HEPATITIS B AND/OR HEPATITIS D-PERMISSIVE CELLS AND ANIMALS” (TECHNISCHE UNIVERSITAET MUENCHEN, priority 2018, published 2021):

B1: hNTCP: human NTCP receptor (SEQ ID NO: 4) (protein, listed as Homo sapiens)
chain: MEAHNASAPFNFTLPPNFGKRPTDLALSVILVFMLFFIMLSLGCTMEFSKIKAHLWKPKGLAIALVAQYGIMPLTAFVLGKVFRLKNIEALAILVCGCSPGGNLSNVFSLAMKGDMNLSIVMTTCSTFCALGMMPLLLYIYSRGIYDGDLKDKVPYKGIVISLVLVLIPCTIGIVLKSKRPQYMRYVIKGGMIIILLCSVAVTVLSAINVGKSIMFAMTPLLIATSSLMPFIGFLLGYVLSALFCLNGRCRRTVSMETGCQNVQLCSTILNVAFPPEVIGPLFFFPLLYMIFQLGEGLLLIAIFWCYEKFKTPKDKTKMIYTAATTEETIPGALGNGTYKGEDCSP

How the values were obtained:
[1] = system: porcine NTCP; assay: Guide RNA efficiency to cause Indel mutations in porcine kidney fibroblasts (CRISPR/Cas9); format: cell-based; settings: modified PX330 plasmid
Protocol: Here, porcine kidney fibroblasts were transfected with a modified PX330 plasmid, carrying an additional Puromycin selection cassette, porcine NTCP guide RNA sequence and Cas9 nuclease. Several guide RNA sequences (18 bp long) were tested for their efficiency to cause Insertion/Deletion (Indel) mutations.

[2] = system: HBV; assay: HBV infection of HepG2 cells transfected with NTCP variants, HBeAg ELISA of supernatant; format: cell-based, Hepatitis B virus; settings: HepG2 transfected with NTCP plasmid, HBV MOI 300, days 4, 7 and 10 after infection, FIG. 5A
Protocol: However, neither of these approaches was successful with porcine NTCP. […] Therefore, these human cells are a valuable tool to analyze the effect of different NTCP muteins in a human cell culture system.
HepG2 cells were transfected with plasmids coding for different variants of NTCP: human (hNTCP), porcine (pNTCP) or chimeric (pNTCP w/ hAA). After transfection, the cells were incubated for three days with 2% DMSO before they were infected with HBV at an MOI of 300. The supernatant was collected at days 4, 7 and 10 after infection and analyzed for the viral protein HBeAg by ELISA.

[3] = system: HBV; assay: Southern Blot analysis of HBV cccDNA in PPH; format: cell-based, Hepatitis B virus; settings: day 4 after infection with HBV, FIG. 4
Protocol: (§1) Primary porcine hepatocytes (PPH) were isolated from a pig liver less than 3 h after slaughter and kept in culture: For infection experiments, the cells were seeded in a 24 well plate and for Southern Blot experiments into 6 well plates. The next day, the cells were transduced with adenovirus at an MOI of 1 or 5 (see FIG. 2) and cultured in DMEM-F12 comprising […]. The sequences of the adenoviruses are shown in SEQ ID NO: 6 for Ad-hNTCP, SEQ ID NO: 7 for Ad-phNTCP and SEQ ID NO: 8 for Ad-hNTCP-tdTomato.
(§2) On day 4 after isolation (day 3 after transduction), the cells were infected with HBV (genotype D, serotype ayw) in DMEM-F12 with 4% PEG6000 with an MOI of 1000.
On days 3 and 5 after HBV infection, samples were taken for HBeAg measurements. Medium was changed on day 3 after HBV infection. The 6 well plate for the Southern Blot analysis was frozen at −80° C. on day 4 after HBV infection and used for a Hirt extraction with subsequent Southern Blot. To detect protein-free forms of HBV DNA including cccDNA, a modified Hirt extraction procedure was used (Yan et al. 2012). Intracellular capsid-associated DNA was prepared as described (Ko et al. 2014). Viral DNA forms were separated on an agarose gel, transferred onto a nylon membrane, and hybridized with a digoxigenin-labeled HBV-specific probe (Ko et al. 2014). DNA signal was detected by DIG Luminescent Detection Kit (Roche).

[4] = system: HBV; assay: qPCR of HBV rcDNA and cccDNA in PPH; format: cell-based, Hepatitis B virus; settings: day 5 after infection, FIG. 3
Protocol: as §1, §2
On day 5 after infection, the 24 well plates were lysed, frozen and then DNA was isolated and analyzed for rcDNA or cccDNA using qPCR. In detail, total cellular DNA was extracted using NucleoSpin Tissue kit (Macherey Nagel). For selective cccDNA PCR, isolated DNA was treated with 5 units of T5 exonuclease (NEB, Frankfurt, Germany) for 30 min in 10 μl reaction volume (Xia 2017b) followed by heat-inactivation at 95° C. for 5 min and 4-fold dilution with distilled water. Two different primer sets were used to detect total intracellular HBV DNA (HBV1844F: 5′-[…]-3′ (SEQ ID NO: 9) and HBV1745R: 5′-GGAGGGATACATAG (SEQ ID NO: 10).

Row | Molecule | Indel frequency [1] | susceptibility of HepG2 cells to HBV (HBeAg in supernatant) [2] | HBV cccDNA in Southern Blot [3] | HBV cccDNA in PPH [4] | HBV rcDNA in PPH [4]
1 | NTCP G3: guide RNA sequence GAAGGACAAGGTGCCCTA (SEQ ID NO: 22) (expressed or natural sequence) | highest | – | – | – | –
2 | B1 | – | susceptible to HBV | show HBV cccDNA | drastic increase | drastic increase
